According to patent publication US20160266124A1 (published 2016):

B1: pHP2 (other)
chain: VDSGNDVTDIADDGCPKPPEIAHGYVEHSVRYQCKNYYKLRTEGDGVYTLNDKKQWINKAVGDKLPECEADDGCPKPPEIAHGYVEHSVRYQCKNYYKLRTEGDGVYTLNNEKQWINKAVGDKLPECEAVCGKPKNPANPVQRILGGHLDAKGSFPWQAKMVSHHNLTTGATLINEQWLLTTAKNLFLNHSENATAKDIAPTLTLYVGKKQLVEIEKVVLHPNYSQVDIGLIKLKQKVSVNERVMPICLPSKDYAEVGRVGYVSGWGRNANFKFTDHLKYVMLPVADQDQCIRHYEGSTVPEKKTPKSPVGVQPILNEHTFCAGMSKYQEDTCYGDAGSAFAVHDLEEDTWYATGILSFDKSCAVAEYGVYVKVTSIQDWVQKTIAENHHHHHH
B2: pHP1 (other)
chain: VDSGNDVTDIADDGCPKPPEIAHGYVEHSVRYQCKNYYKLRTEGDGVYTLNNEKQWINKAVGDKLPECEAVCGKPKNPANPVQRILGGHLDAKGSFPWQAKMVSHHNLTTGATLINEQWLLTTAKNLFLNHSENATAKDIAPTLTLYVGKKQLVEIEKVVLHPNYSQVDIGLIKLKQKVSVNERVMPICLPSKDYAEVGRVGYVSGWGRNANFKFTDHLKYVMLPVADQDQCIRHYEGSTVPEKKTPKSPVGVQPILNEHTFCAGMSKYQEDTCYGDAGSAFAVHDLEEDTWYATGILSFDKSCAVAEYGVYVKVTSIQDWVQKTIAEN

Target: 15F12
Experiment: SPR

Binder	Kd [nM]
B1	0.3
B2	0.3
